# Measured values as given in patent publication US20260132197A1 (NANJING LEGEND BIOTECH, published 2026).
# Legend:
# [1] = molecular target: T1, human CD47 on cells (SHP-77 tumor cells, human red blood cells, CCRF-CEM cells, human CD47 CHO-K1 stable cell … (human, UniProt Q08722 19-323)); test: flow cytometry on SHP-77 cells
# T1 construct: whole, on cells; also called RBC
# [2] = molecular target: T1, human CD47 on cells (SHP-77 tumor …); test: flow cytometry on human RBCs;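 also: antibody binding measured by flow cytometry as geometric mean fluorescence intensity over a range of antibody concentrations, with EC50 and maximum taken from a sigmoidal dose-response fit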
# [3] = molecular target: T1, human CD47 on cells (SHP-77 tumor …); test: cell-based or functional assay
# Human CD47-C33G [4] = molecular target: T2, Human CD47-C33G (human, UniProt Q08722 19-135); test: SPR, IgG captured, CD47 in flow; exp 4
# T2 construct: also called CD47 mutein with C33G mutation
# [5] = molecular target: T3, wild type human CD47 (Acro Biosystems, cat. no. CD7-H5227) (human, UniProt Q08722 19-139); test: SPR, IgG captured, CD47 in flow; exp 4
# T3 construct: Bought protein used as SPR analyte; also called Human CD47 wt; wild-type CD47
# Human CD47-C33G [6] = molecular target: T2, Human CD47-C33G; test: SPR, IgG captured, CD47 in flow; exp 1;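 also: biacore T200 SPR using IgG from supernatants of transfected HEK293 cells, rate constants fitted to association and dissociation curves, Kd derived from koff over kon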
# [7] = molecular target: T3, wild type human CD47 (Acro Biosystems, …); test: SPR, IgG captured, CD47 in flow; exp 1;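 also: biacore T200 SPR using IgG from supernatants of transfected HEK293 cells, rate constants fitted to association and dissociation curves, Kd derived from koff over kon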
# Human CD47-C33G [8] = molecular target: T2, Human CD47-C33G; test: SPR, IgG captured, CD47 in flow; exp 4; remark: listed apart in the source
# [9] = molecular target: T3, wild type human CD47 (Acro Biosystems, …); test: SPR, IgG captured, CD47 in flow; exp 4; remark: listed apart in the source
# Human CD47-C33G [10] = molecular target: T2, Human CD47-C33G; test: SPR, IgG captured, CD47 in flow; exp 2;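 also: IgG from HEK293 cell supernatants tested by SPR on a BIAcore T200, C33G mutein prevents IgV homodimers for monovalent affinity, KD derived from association and dissociation rates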
# [11] = molecular target: T3, wild type human CD47 (Acro Biosystems, …); test: SPR, IgG captured, CD47 in flow; exp 2;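 also: IgG from HEK293 cell supernatants tested by SPR on a BIAcore T200, C33G mutein prevents IgV homodimers for monovalent affinity, KD derived from association and dissociation rates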
binder,measurement,setting,value
"108VH10.Mo / 108VL10.Me (antibody, V domains shown, 4D5-framework series; also called VH10.Mo VL10.Me) VH: EVQLVESGGGLVQPGGSLRLSCAASGFTFSHHWIHWVRQAPGKGLEWVAMIDASDSETRLSDSFKGRFTISADTSKNTAYLQMNSLRAEDTAVYYCSRLGRYYFDYWGQGTLVTVSS VL: DIQMTQSPSSLSASVGDRVTITCRASQSISSYLNWYQQKPGKAPKLLIYGASSRYSGVPSRFSGSRSGTDFTLTISSLQPEDFATYYCGESYGHLYTFGQGTKVEIK",EC50,[1],7.9 nM
same,Fitted Maximal MFI,[1],34500 MFI
same,EC50,[2],3.4 nM
same,Fitted Maximal MFI,[2],19200 MFI
same,CCRF-CEM phagocytosis EC50,[3],0.18 nM
same,"CCRF-CEM phagocytosis, Phagocytosis (%)",[3],56.4%
same,Kd,Human CD47-C33G [4],45 nM
same,koff,Human CD47-C33G [4],0.0093 s⁻¹
same,kon,Human CD47-C33G [4],210000 M⁻¹ s⁻¹
same,Kd,[5],5.8 nM
same,koff,[5],0.0032 s⁻¹
same,kon,[5],560000 M⁻¹ s⁻¹
"108VH10.Mp / 108VL10.Me (antibody, V domains shown, 4D5-framework series; constant regions not restated for this series; also called VH10.Mp VL10.Me) VH: EVQLVESGGGLVQPGGSLRLSCAASGFTFSHHWIHWVRQAPGKGLEWVAMIDASDSETRLVDSFKGRFTISADTSKNTAYLQMNSLRAEDTAVYYCSRLGRYYFDYWGQGTLVTVSS VL: DIQMTQSPSSLSASVGDRVTITCRASQSISSYLNWYQQKPGKAPKLLIYGASSRYSGVPSRFSGSRSGTDFTLTISSLQPEDFATYYCGESYGHLYTFGQGTKVEIK",EC50,[1],27.5 nM
same,Fitted Maximal MFI,[1],24100 MFI
same,EC50,[2],23.6 nM
same,Fitted Maximal MFI,[2],16100 MFI
same,CCRF-CEM phagocytosis EC50,[3],1.2 nM
same,"CCRF-CEM phagocytosis, Phagocytosis (%)",[3],47.1%
same,Kd,Human CD47-C33G [4],170 nM
same,koff,Human CD47-C33G [4],0.012 s⁻¹
same,kon,Human CD47-C33G [4],72000 M⁻¹ s⁻¹
same,Kd,[5],15 nM
same,koff,[5],0.0039 s⁻¹
same,kon,[5],250000 M⁻¹ s⁻¹
"108VH5.M5 / 108VL1.M5 (antibody, human IgG4 S228P, kappa, V domains shown, Full-length IgG4 (S228P), kappa; also called VH5.M5 VL1.M5) VH: EVQLVQSGAEVKKPGASVKVSCKASGYTFTHHWIHWVRQAPGQGLEWMGMIDASDSETRLSQKFKDRVTMTRDTSTSTVYMELSSLRSEDTAVYYCARLGRYYFDYWGQGTLVTVSS VL: EIVLTQSPATLSLSPGERATLSCRASQSVSSYLAWYQQKPGQAPRLLIYGASNRATGIPARFSGSGSGTDFTLTISSLEPEDFAVYYCGESYGHLYTFGGGTKVEIKR",Kd,Human CD47-C33G [6],6.2 nM
same,koff,Human CD47-C33G [6],0.0021 s⁻¹
same,kon,Human CD47-C33G [6],330000 M⁻¹ s⁻¹
same,Kd,[7],1.3 nM
same,koff,[7],0.00096 s⁻¹
same,kon,[7],720000 M⁻¹ s⁻¹
"108VH5.M25 / 108VL1.M5 (antibody, human IgG4 S228P, kappa, V domains shown, Full-length IgG4 (S228P), kappa; also called VH5.M25 VL1.M5) VH: EVQLVQSGAEVKKPGASVKVSCKASGYTFTHHWMHWVRQAPGQGLEWMGMIDASDRETRYAQKFQGRVTMTRDTSTSTVYMELSSLRSEDTAVYYCARLGRYYFDYWGQGTLVTVSS VL: EIVLTQSPATLSLSPGERATLSCRASQSVSSYLAWYQQKPGQAPRLLIYGASNRATGIPARFSGSGSGTDFTLTISSLEPEDFAVYYCGESYGHLYTFGGGTKVEIKR",EC50,[1],7.1 nM
same,Fitted Maximal MFI,[1],39600 MFI
same,EC50,[2],4 nM
same,Fitted Maximal MFI,[2],35500 MFI
same,Kd,Human CD47-C33G [8],33 nM
same,koff,Human CD47-C33G [8],0.0063 s⁻¹
same,kon,Human CD47-C33G [8],190000 M⁻¹ s⁻¹
same,Kd,[9],6.2 nM
same,koff,[9],0.0028 s⁻¹
same,kon,[9],450000 M⁻¹ s⁻¹
"108VH5.M21 / 108VL1.M5 (antibody, human IgG4 S228P, kappa, V domains shown, Full-length IgG4 (S228P), kappa; also called VH5.M21 VL1.M5) VH: EVQLVQSGAEVKKPGASVKVSCKASGYTFTHHWMHWVRQAPGQGLEWMGMIDASDFETRYAQKFQGRVTMTRDTSTSTVYMELSSLRSEDTAVYYCARLGRYYFDYWGQGTLVTVSS VL: EIVLTQSPATLSLSPGERATLSCRASQSVSSYLAWYQQKPGQAPRLLIYGASNRATGIPARFSGSGSGTDFTLTISSLEPEDFAVYYCGESYGHLYTFGGGTKVEIKR",EC50,[1],11.9 nM
same,Fitted Maximal MFI,[1],37400 MFI
same,EC50,[2],9.2 nM
same,Fitted Maximal MFI,[2],40800 MFI
same,CCRF-CEM phagocytosis EC50,[3],0.32 nM
same,"CCRF-CEM phagocytosis, Phagocytosis (%)",[3],51.9%
same,Kd,Human CD47-C33G [8],51 nM
same,koff,Human CD47-C33G [8],0.008 s⁻¹
same,kon,Human CD47-C33G [8],160000 M⁻¹ s⁻¹
same,Kd,[9],6.5 nM
same,koff,[9],0.0032 s⁻¹
same,kon,[9],490000 M⁻¹ s⁻¹
"108VH5.M9 / 108VL1.M5 (antibody, human IgG4 S228P, kappa, V domains shown, Full-length IgG4 (S228P), kappa; also called VH5.M9 VL1.M5) VH: EVQLVQSGAEVKKPGASVKVSCKASGYSFTHHWIHWVRQAPGQGLEWMGMIDASDSETRLSQKFQGRVTMTRDTSTSTVYMELSSLRSEDTAVYYCARLGRYYFDYWGQGTLVTVSS VL: EIVLTQSPATLSLSPGERATLSCRASQSVSSYLAWYQQKPGQAPRLLIYGASNRATGIPARFSGSGSGTDFTLTISSLEPEDFAVYYCGESYGHLYTFGGGTKVEIKR",Kd,Human CD47-C33G [6],8.5 nM
same,koff,Human CD47-C33G [6],0.0028 s⁻¹
same,kon,Human CD47-C33G [6],330000 M⁻¹ s⁻¹
same,Kd,[7],1.9 nM
same,koff,[7],0.0014 s⁻¹
same,kon,[7],760000 M⁻¹ s⁻¹
"108VH5.M8 / 108VL1.M5 (antibody, human IgG4 S228P, kappa, V domains shown, Full-length IgG4 (S228P), kappa; also called VH5.M8 VL1.M5) VH: EVQLVQSGAEVKKPGASVKVSCKASGYSFTHHWIHWVRQAPGQGLEWMGMIDASDSETRYAQKFKDRVTMTRDTSTSTVYMELSSLRSEDTAVYYCARLGRYYFDYWGQGTLVTVSS VL: EIVLTQSPATLSLSPGERATLSCRASQSVSSYLAWYQQKPGQAPRLLIYGASNRATGIPARFSGSGSGTDFTLTISSLEPEDFAVYYCGESYGHLYTFGGGTKVEIKR",Kd,Human CD47-C33G [6],15 nM
same,koff,Human CD47-C33G [6],0.0044 s⁻¹
same,kon,Human CD47-C33G [6],300000 M⁻¹ s⁻¹
same,Kd,[7],3 nM
same,koff,[7],0.0022 s⁻¹
same,kon,[7],720000 M⁻¹ s⁻¹
"108VH5.M24 / 108VL1.M5 (antibody, human IgG4 S228P, kappa, V domains shown, Full-length IgG4 (S228P), kappa; also called VH5.M24 VL1.M5) VH: EVQLVQSGAEVKKPGASVKVSCKASGYTFTHHWMHWVRQAPGQGLEWMGMIDASDLETRYAQKFQGRVTMTRDTSTSTVYMELSSLRSEDTAVYYCARLGRYYFDYWGQGTLVTVSS VL: EIVLTQSPATLSLSPGERATLSCRASQSVSSYLAWYQQKPGQAPRLLIYGASNRATGIPARFSGSGSGTDFTLTISSLEPEDFAVYYCGESYGHLYTFGGGTKVEIKR",EC50,[1],9.8 nM
same,Fitted Maximal MFI,[1],38700 MFI
same,EC50,[2],4 nM
same,Fitted Maximal MFI,[2],29200 MFI
same,Kd,Human CD47-C33G [8],31 nM
same,koff,Human CD47-C33G [8],0.0067 s⁻¹
same,kon,Human CD47-C33G [8],220000 M⁻¹ s⁻¹
same,Kd,[9],5.7 nM
same,koff,[9],0.003 s⁻¹
same,kon,[9],520000 M⁻¹ s⁻¹
"108VH5.M12 / 108VL1.M5 (antibody, human IgG4 S228P, kappa, V domains shown, Full-length IgG4 (S228P), kappa; also called VH5.M12 VL1.M5) VH: EVQLVQSGAEVKKPGASVKVSCKASGYTFTHHWMHWVRQAPGQGLEWMGMIDASDSETRYAQKFQGRVTMTRDTSTSTVYMELSSLRSEDTAVYYCARLGRYYFDYWGQGTLVTVSS VL: EIVLTQSPATLSLSPGERATLSCRASQSVSSYLAWYQQKPGQAPRLLIYGASNRATGIPARFSGSGSGTDFTLTISSLEPEDFAVYYCGESYGHLYTFGGGTKVEIKR",Kd,Human CD47-C33G [10],15 nM
same,koff,Human CD47-C33G [10],0.0041 s⁻¹
same,kon,Human CD47-C33G [10],280000 M⁻¹ s⁻¹
same,Kd,[11],2.7 nM
same,koff,[11],0.002 s⁻¹
same,kon,[11],730000 M⁻¹ s⁻¹
"108VH5.M10 / 108VL1.M5 (antibody, human IgG4 S228P, kappa, V domains shown, Full-length IgG4 (S228P), kappa; also called VH5.M10 VL1.M5) VH: EVQLVQSGAEVKKPGASVKVSCKASGYTFTHHWIHWVRQAPGQGLEWMGMIDASDSETRYAQKFQGRVTMTRDTSTSTVYMELSSLRSEDTAVYYCARLGRYYFDYWGQGTLVTVSS VL: EIVLTQSPATLSLSPGERATLSCRASQSVSSYLAWYQQKPGQAPRLLIYGASNRATGIPARFSGSGSGTDFTLTISSLEPEDFAVYYCGESYGHLYTFGGGTKVEIKR",Kd,Human CD47-C33G [10],16 nM
same,koff,Human CD47-C33G [10],0.004 s⁻¹
same,kon,Human CD47-C33G [10],250000 M⁻¹ s⁻¹
same,Kd,[11],2.8 nM
same,koff,[11],0.0019 s⁻¹
same,kon,[11],660000 M⁻¹ s⁻¹
"108VH5.M14 / 108VL1.M5 (antibody, human IgG4 S228P, kappa, V domains shown, Full-length IgG4 (S228P), kappa; also called VH5.M14 VL1.M5) VH: EVQLVQSGAEVKKPGASVKVSCKASGYTFTHHWIHWVRQAPGQGLEWMGMIDASDGETRYAQKFQGRVTMTRDTSTSTVYMELSSLRSEDTAVYYCARLGRYYFDYWGQGTLVTVSS VL: EIVLTQSPATLSLSPGERATLSCRASQSVSSYLAWYQQKPGQAPRLLIYGASNRATGIPARFSGSGSGTDFTLTISSLEPEDFAVYYCGESYGHLYTFGGGTKVEIKR",Kd,Human CD47-C33G [10],14 nM
same,koff,Human CD47-C33G [10],0.0037 s⁻¹
same,kon,Human CD47-C33G [10],260000 M⁻¹ s⁻¹
same,Kd,[11],2.6 nM
same,koff,[11],0.0018 s⁻¹
same,kon,[11],690000 M⁻¹ s⁻¹
